Kd data for 5 sequences are collected here from the Immune Epitope Database (IEDB).

The target of one assay is HLA-A*23:01. The experiment in a line: IEDB peptide-MHC binding, purified MHC/direct/fluorescence; filed as Kd, often an IC50 or EC50 that approximates it; ≥ and ≤ were set here for values at or beyond the usual limits of such assays. The settings on record: source organism: Giardia lamblia ATCC 50803.
A further assay addresses HLA-A*68:02. The assay is described as above.
The target of a further assay is HLA-A*02:12. The assay is described as above. The settings on record: source organism: Giardia lamblia ATCC 50803.
The next assay has as its target HLA-A*03:01. The assay is described as above.
The target in a further assay is HLA-A*11:01. The description is as above.
In the next assay the target is HLA-A*24:03. The description is as above. The following applies: source organism: Giardia lamblia ATCC 50803.
The next assay addresses HLA-A*29:02. Described as above. The settings on record: source organism: Giardia lamblia ATCC 50803.
Assay [1] has as its target HLA-A*02:03. Described as above. The settings on record: source organism: Giardia lamblia ATCC 50803.
Another assay has as its target HLA-A*02:19. The assay is described as above. The settings on record: source organism: Giardia lamblia ATCC 50803.
The target in the next assay is HLA-B*51:01. Put plainly: IEDB peptide-MHC binding, purified MHC/competitive/fluorescence; filed as Kd, often an IC50 or EC50 that approximates it; ≥ and ≤ were set here for values at or beyond the usual limits of such assays. The settings on record: source organism: Giardia lamblia ATCC 50803.
Assay [2] concerns the target HLA-B*18:01. The assay is described as above. The settings on record: source organism: Giardia lamblia ATCC 50803.
Assay [3] addresses HLA-A*26:01. Described as above. The settings on record: source organism: Giardia lamblia ATCC 50803.
For assay [4], the target named is HLA-A*02:01. The assay is described as above. The settings on record: source organism: Giardia lamblia ATCC 50803.
The next assay has as its target HLA-B*39:01. Described as above. The settings on record: source organism: Giardia lamblia ATCC 50803.
Assay [5] deals with HLA-B*15:17. Described as above. The settings on record: source organism: Giardia lamblia ATCC 50803.
The target in assay [6] is HLA-B*57:01. Described as above. The settings on record: source organism: Giardia lamblia ATCC 50803.
In a further assay the target is HLA-B*27:03. Described as above. The following applies: source organism: Giardia lamblia ATCC 50803.
Assay [7] deals with HLA-B*46:01. The assay is described as above. The settings on record: source organism: Giardia lamblia ATCC 50803.
Another assay has as its target HLA-A*69:01. The description is as above. The following applies: source organism: Giardia lamblia ATCC 50803.
The next assay deals with HLA-A*26:02. Put plainly: IEDB peptide-MHC binding, purified MHC/direct/fluorescence; filed as Kd, often an IC50 or EC50 that approximates it; ≥ and ≤ were set here for values at or beyond the usual limits of such assays.
The target of assay [8] is HLA-A*26:01. The assay is described as above.
The target of another assay is HLA-A*01:01. The assay is described as above.
Another assay has as its target HLA-B*27:05. The description is as above.
Assay [9] deals with HLA-A*02:01. The description is as above.
For another assay, the target named is HLA-B*15:01. The description is as above.
A further assay has as its target HLA-A*31:01. The description is as above.
The target in a further assay is HLA-B*08:03. The assay is described as above.
The target in assay [10] is HLA-B*15:17. The description is as above.
The next assay has as its target HLA-B*58:01. Described as above.
For another assay, the target named is HLA-B*07:02. The description is as above.
Assay [11] deals with HLA-B*57:01. The description is as above.
In a further assay the target is HLA-B*08:02. Described as above.
Another assay deals with HLA-B*48:01. The description is as above.
Assay [12] has as its target HLA-B*46:01. The assay is described as above.
The target of the next assay is HLA-B*08:01. Described as above.
For assay [13], the target named is HLA-B*40:01. The experiment in a line: IEDB peptide-MHC binding, purified MHC/competitive/fluorescence; filed as Kd, often an IC50 or EC50 that approximates it; ≥ and ≤ were set here for values at or beyond the usual limits of such assays. The following applies: source organism: Campylobacter jejuni subsp. jejuni BH-01-0142.
A further assay has as its target HLA-A*02:06. The description is as above.
Assay [14] deals with HLA-A*02:03. Described as above. The following applies: source organism: Campylobacter jejuni subsp. jejuni BH-01-0142.
Assay [15] addresses HLA-B*18:01. The experiment in a line: IEDB peptide-MHC binding, purified MHC/direct/fluorescence; filed as Kd, often an IC50 or EC50 that approximates it; ≥ and ≤ were set here for values at or beyond the usual limits of such assays. The settings on record: source organism: Vibrio parahaemolyticus.
Assay [16] concerns the target HLA-B*40:01. Described as above. The settings on record: source organism: Vibrio parahaemolyticus.
[17] abbreviates: source organism: Giardia lamblia ATCC 50803.
The mark [18] stands for this setting: source organism: Campylobacter jejuni.
Setting [19] is: source organism: Vibrio parahaemolyticus.
Where [20] appears, read: source organism: Vibrio parahaemolyticus RIMD 2210633.
[21] abbreviates: source organism: Vibrio vulnificus CMCP6.

One may read the Kd as the equilibrium constant for the complex coming apart. Low readings indicate tighter binding, high ones weaker binding. Regarding RIYDPLWFQ, the Kd is no less than 20 µM in the assay with HLA-A*23:01; no less than 20 µM with HLA-A*68:02 (setting [17]); no less than 20 µM with HLA-A*02:12; no less than 20 µM with HLA-A*03:01 (setting [17]); 2.93 µM with HLA-A*11:01 (setting [17]); no less than 20 µM with HLA-A*24:03. Besides, the Kd in the assay with HLA-A*29:02, in the assay with HLA-A*02:03 [1], with HLA-A*02:19, with HLA-B*51:01, with HLA-B*18:01 [2] and in the assay with HLA-A*26:01 [3] was no less than 20 µM in each case. The equilibrium dissociation constant (Kd) in the assay with HLA-A*02:01 [4], with HLA-B*39:01, with HLA-B*15:17 [5], with HLA-B*57:01 [6], with HLA-B*27:03 and in the assay with HLA-B*46:01 [7] was no less than 20 µM each time. The same sequence had a Kd in the assay with HLA-A*69:01 of no less than 20 µM.

Sequence LVALTLTSY had a Kd in the assay with HLA-A*26:02 (source organism: Yellow fever virus) of 0.18 µM.

Take VSIRGSHHK: the Kd is no less than 20 µM with HLA-A*26:01 [8] (setting [18]); no less than 20 µM in the assay with HLA-A*01:01 (setting [18]); no less than 20 µM with HLA-A*68:02 (setting [18]); no less than 20 µM in the assay with HLA-B*27:05 (setting [18]); no less than 20 µM with HLA-A*02:01 [9] (setting [18]); no less than 5 µM with HLA-B*15:01 (setting [18]). In addition, the Kd with HLA-A*31:01 (setting [18]) was 4.88 µM; with HLA-B*08:03 (setting [18]) it was no less than 20 µM; with HLA-B*15:17 [10] (setting [18]), no less than 20 µM; with HLA-B*58:01 (setting [18]), no less than 20 µM; in the assay with HLA-A*03:01 (setting [18]), 0.145 µM; in the assay with HLA-B*07:02 (setting [18]), no less than 20 µM. For the same sequence, the Kd with HLA-A*11:01 (setting [18]) is 0.091 µM; with HLA-B*57:01 [11] (setting [18]) it was no less than 20 µM; with HLA-A*26:02 (setting [18]), no less than 20 µM; with HLA-B*08:02 (setting [18]), no less than 20 µM; in the assay with HLA-B*48:01 (setting [18]), no less than 20 µM; with HLA-B*46:01 [12] (setting [18]), no less than 20 µM. Besides, the Kd was no less than 20 µM in the assay with HLA-B*08:01 (setting [18]), 3.19 µM with HLA-B*40:01 [13], 5.13 µM with HLA-A*02:06 (source organism: Campylobacter jejuni subsp. jejuni BH-01-0142) and 3.41 µM with HLA-A*02:03 [14].

Consider VFMDNAFKK, for which the Kd with HLA-B*18:01 [15], with HLA-A*01:01 (setting [19]), with HLA-A*68:02 (setting [19]), with HLA-B*27:05 (setting [19]), in the assay with HLA-A*02:01 [9] (setting [19]) and in the assay with HLA-B*15:01 (setting [19]) was no less than 20 µM throughout. Also, the Kd with HLA-A*31:01 (setting [19]) was 2.21 µM; with HLA-B*08:03 (setting [20]), no less than 20 µM; with HLA-B*15:17 [10] (setting [19]) it was no less than 20 µM; with HLA-B*58:01 (setting [19]), no less than 20 µM; in the assay with HLA-A*03:01 (setting [19]), 1.38 µM; with HLA-B*40:01 [16] it was no less than 20 µM. Moreover, the Kd is no less than 20 µM in the assay with HLA-B*07:02 (setting [19]); 0.131 µM with HLA-A*11:01 (setting [19]); no less than 20 µM with HLA-B*57:01 [11] (setting [19]); no less than 20 µM with HLA-A*26:02 (setting [20]); no less than 20 µM with HLA-B*08:02 (setting [20]); no less than 20 µM with HLA-B*48:01 (setting [19]). Further, the Kd in the assay with HLA-B*46:01 [12] (setting [19]) is no less than 20 µM; in the assay with HLA-B*08:01 (setting [20]), no less than 20 µM; in the assay with HLA-A*02:06 (setting [20]) it was 0.291 µM.

Take HVIASMRHF: the Kd is 0.002 µM with HLA-A*26:01 [8] (setting [21]) and no more than 0.001 µM with HLA-A*26:02 (setting [21]).
